Source: the DeepSol protein solubility set

Experiment: soluble on expression in E. coli; label from the status in PepcDB or PDB records

Row | Sequence | soluble on expression in E. coli
1 | MGSDKIHHHHHHMPDNANIAASHTQAHGSSYDDKPTQPQCDSIKLNEIGPNLLEPRAIEPSATKPNAIKHESVITKQKQKVIFIGLPRTGTTSVSVALLEQGLKVAHMAFTKEAFMQADAISDAPCFSDFKQLDELFPKAKFVYLDRELDSWVPSMQMLLSRMLPHLDAKIGRFHPIMKRSFRHTFGVGVVENPQDEQHLIDCYQHHKTEVFNYFAGRQDLLSIDVSQQGALGQLLAFMELTSAENHNLSFPKLNVGRNVASWDEYKHPNKISANAAGPEKRKYFDYKV | not soluble
2 | MEAEMSDERCALVLEGGAMRGMYTAGVLDCFMDHDISFDAVIGVSAGALFGVNLLSKQRGRVIRYNKRFNSDKNYMGIRPLLREKNIVSTKYAYDTVPRELDPFDDEEYKKSDIPFYAVVTNIRTGKPEYVQIKSVFDQMDVLRASGSMPVVSKPVKLGNEWYLDGAVTDSIPYEHMLDMGYDRVVVVLTKPADYIKKPMPRLFTSVYKKRFPRFYEAFSNRHIMYNYQLEHLKELEKQGIAEVLRPSEHIKISKVEKDPNKLESLYQLGLRDAKRLLADKQGMEKQ | not soluble
3 | QYRHLLDLQPMLEALSESSFLNQPVEGHGPLGIIAFGIGYNYAMEARKAHSIECRLLKIGQYPLPRTQVNELFEACSEVLVVEEGYPVYEELFRGYFGSAKVRGRMDGTLPRDGELTTDLVAAALGVKPPETATTPEIVVGRPPELCKGCGHRDMFDAINIAIKENADHHVFSDIGCYTLGALPPYNAIHTCVDMGAAITMAKGAADAGLRPAVCVIGDSTFAHSGMTGLLDAVNDRTPVTVIIADNNTTAMTGGQCSSASGSKLVNICIGLGVEEA | not soluble
4 | MAEAVITLTEAAAFQIKDMMKEQEEEGAYLRVGVHGGGCSGLSYGMGFDHERRDDDIEFEQHGIKILVDRDSAPILRGTVIDYKQSLLGGGFTINNPNAIATCGCGSSFRTATNAGTPEQC | soluble
5 | MGSDKIHHHHHHMDDFDTPVTGNAYGNNTIKEQRTISIANLKEKYSSVISANQFQTVTEETRISGVVVGDDESGNIYKQLIVADETGAIVVGINSTGIYANCPVGQKVVIDCENLNVGGYGMQAQIGTTYKGAIGRMDLAVWLDHVRVINKPQLWYDELIPMELTGAQLKAYDKDLAPVLVMFKDVTIKEADGTATFAPEDLKDGGNGVNRTLVLDDNSTLTFRTSTYANFSTEVMPTGKINVIGILSRYNSTWQIVARTYSDIQRNN | not soluble
6 | NNEIMPGKMKVKATKGEGDGGITSEGNALYNNEGGRAFMYAYVTTKPGMKYVKWEHDSGVVTVELEPPCRFVIDTPTGPQIKYLYFVKNLNNLRRGAVLGYIGATVRLQ | soluble
7 | MSFFPGNDPVAGDAFACDAIENLIIPRTSDIGGFAVRRALPTRQRRLVGPFIFFDRMGPAILKAGEALDVKPHPHIGLSTVTYLFDGEIKHRDSLGTELVIRPGDINLMTAGRGIVHSERTPENLRGHPLSMSGLQTWLALPDHMEEIAPAFAHTAKEDMPLIDIKGASGRVVIGEFEGLTSPVSAFTDTLYVDLSLEPGVKFPFSADHEERAIYILSGSLDVAGDIFAADQLLVFRPGDDITLQAGSNGCHIMIFGGAALNQRRYIWWNFVSSSKERIEQAKQEWRTGRFDIVPGDEEEFVPLPEG | not soluble
8 | MVAAAAATGILSLCGSPALADSHADGAATNSPGAVSGNALQVPVDVPVNACGNTVDVIAALNPAFGNECENASDEKTDGHGGGYGEDASSSSSSSTSASSSGSHADGATEGSPGVGSGNNAQVPVDVPVNLCGNTVDVIAALNPVFGNKCENDAEEPPGYGEEEPPPPTTPPGYGEEEPPPPTHEEPPPPSGEEEPPPPSEEEHTPPAPQTEQPPALAETGSEGTLGAAAAGAVLIAGGAILYRRGRALSGRLEHHHHHH | not soluble
9 | MPGTRFSGKVVLISGSSKGIGQATAVKFAAEGAKIVLNGRSADDVEKTRKLCMEVGAKPWDLLPTVGDITNEDFVKMMVNTVIHNFGKLDILINNAGTLEVDMTGKEGWEMGVDVMDRSWNSNFKSVLMLTQAAMPHLIKTKGDIVNVSTFLSSGPIGVMSMPYYAVPKAALDQMSRSMAHEYMLKGVRLNTVNPGLVSTSFFARLPGVGDDNARKMENYVQSKTEYIPLGRVCQASDVAETILFLADRKVSECIVGQSIIIDGGSRLCCNIDMSDFKEQMAKA | not soluble
10 | MGLGRVITRSLSSVEPALSQKLTIQPAIERSPTDLLNALSETVGPDTTAPHFAYIDDPITIPSTQSTKKTYFMAKEFGKRAARELATEWPTLFAFDRDQPQLPVFRPRHLADPLQVEPTENNLLKMISSREVKDSCILYERMRSENVDVSEKVQLELFRLVTYYNSSNVPFAEWEEFVGMRNFGEDSTSSWKSGAVADLLFETLPKTDETVSIMIAGLCKFSDHSSLERARELYKEHRAAKGKVYREAFNGLIGASSYSVGKKLVAEMISLRMTPDIFTFNALLSSAAKAGKFEDRVKAFTEIIGEMKEIGVEPALSSFHLIIKNIIDFKLLDNEKRESDEQKKTYNHQLTVAISWLNEIQNSLTGKTLKPITSTCNLFFVEAMGIHYRAANENLAENLVSIYESKANEVKMPAFTIESMFYNRQLQLAVEQSASLNRIYDLYTTMVPRLVGVNNYLSSLVFRKLAASSDRHWPLLRRVIIDGIAAGQMNGVIGEEMRKQLCNVQLHTLGTSEREQFTSLVQKLVAVWVEFSQFTEERMRRLQRKLSPSQISECALLLTRIGEQQKAYELLDLLLDETASSGDEATVYPRGHARPWAMAELFEDALRKRDTYAAATCLQIMSLTANRAKLEPLANRIFEKCNVNQEQVRIIQGFIRLRPQ | not soluble
11 | MAGDPMMKKDKDTNDQKSESHMKHNDESKVPEDMTSTNEGEFKVGDKVTITAGHMPGMKGAEATVKGAYKTYAYVVSYKPTNGNEKVNNHKWVVNEEIKDAPKDGFSKDDTVKLEANHMSGMKGATANIDNVKKTTVYVVDYKSKDNGKIIKNHKWMTGNELKARLEHHHHHH | soluble
12 | MMASHSDGKNMAKRKKRTKRGRPRINGCIREPNGRISRTKMPLDPIDKLAIEMRAKRFCLTLQEAKNPLSGTYIGRLYLQGNINQDQYDAAQKYLEVRNDYLCAKTLPSAIYDKMPSSSDEAARKKWVEFATKQFLNMQEVIKETQHLYRQHNFYAALQYLVSEDQELPYLVPSLADSP | not soluble
13 | AGQGESGNPPATDKERFIASLMARMSNAEKIGQLRLVSVGADHPKEALMADIRAGKVGAIFNTVTRPDIRAMQDQVRHSRLKIPLFHAYDVAHGHRTIFPISLGLAASWDPEVVARSARISALEASADGLDMSFSPMVDITRDARWGRVSEGFGEDTYLTSLLSGVMVRAYQGSNLAAPDSIMAAVKHFALYGAAEGGRDYNTVDMSLPRMFQDYLPPYKAAVDAGAGAVMVSLNTINGVPATANRWLLTDLLRQQWGFKGLTISDHGAVKELIKHGLAGNERDATRLAIQAGVDMNMNDDLYSTWLPKLLAAGEIDQADIDRACRDVLAAKYDLGLFADPYRRLGKPDDPPFDTNAESRLHRQAAREVAREGLVLLKNRDGLLPLKKQGRIAVIGPLAKSQRDVIGSWSAAGVPRQAVTVYQGLANAVGERATLLYAKGANVSGDQAILDYLNSYNPEVEVDPRSAEAMLEEALRTARDADLVVAVVGESQGMAHEASSRTDLRIPASQRRLLKALKATGKPLVLVLMNGRPLSLGWEQENADAILETWFSGTEGGNAIADVLFGEHNPSGKLTMSFPRSVGQVPVYYNHLNTGRPMDHDNPGKYTSRYFDEANGPLYPFGYGLSYTEFSLSPLRLSSERLARGATLEARVTLSNSGKRAGATVVQLYLQDPVASLSRPVKELRGFRKVMLEPGESREIVFRLGEADLKFYDSQLRHTAEPGEFKVFVGLDSAQTESRSF | not soluble
14 | MGSDKIHHHHHHMLMSVTTENAPVQGQTTLQENSAGEGVYASLFEKINLTPASCLGDINDFLDDAALSEAPAAERLTAAMQVFMERIRQSGQRVEKLDKTLIDHHIAELDFQISRQLDAVMHHQEFQQVESLWRGLKQLVDNTDYRQNVKTEILDVAKDDLRQDFEDAPELIQSGLYWHTYTAEYDTPGGEPIGSVISAYEFDASPQDVALLRNISRVSAAAHMPFIGAVGPAFFLKETMEEVAAIKDIGNYFDRAEYIRWKAFRETDDARYIGLVMPRVLGRLPYGPDTVPVRSFNYVEQVKGPDHEKYLWTSAAFSFASNMVKSFVNNGWCVQIRGPQAGGAVKDLPIHLYDLGTGNQVKIPSEVMIPETREFEFASLGFIPLSYYKNRDYACFFSANSAQKPALYDTADATANSRINARLPYIFLLSRIAHYLKMIQRENIGTTKDRRLLELELNTWVRSLVTEMTDPGDELQASHPLRDASVVVEDIEDNPGFFRVKLYAVPHFQVEGMDVNLSLVSQMPKAKA | not soluble
15 | MSLNNMIQVAIIGAGFIGPAHLEALRRLGDVEVVALCDSRLEAAQRKARALNIAHAYDSVEALLAHPGLQVVHNCTPNHLHAQINRQILAAGLHVFSEKPLCMTAGEARELVALAARAGVVHGVSFVYRQFAMVQQAAAMIRHGEVGRIFAAHGSYLQDWMLLETDYNWRVDSAQGGASRTVADIGSHWCDTVQFMTGRRIVEVMADLSIVWPTRKAPVNGKATFSAVHEAQAYETRPVDTEDFGSVLLRFDDGSKGSFMVSQVSAGRKNRLAVEINGSLCSLAWDQEVPQRLWIGHREQPDRLLSDDPSLLRPEIADSAHYPGGHIEGWPDAFKNMMGHFYQAVRAGKMPAAGARRFAAFDDGADVMYIIEAIVKSHQEQRWVSVEREGHHHHHH | soluble
16 | MSKSYNQRQRKKLHLAEFQELGFLVNFQFAEGTAIETVDETVDRFINEVIQPNGLAYEGSGYLHWEGLVCLEKIGKCDESHRETVKKWLETNGLQQIEVSELFDIWW | not soluble
17 | MACGLALKRPLQHEYESFLTDETYNGEAKRARTQCPPFRAQMGTIAATLPSTSTFAQKFKEQEESVFQAATLMTRLSRNQLKTYLSSEVKNLRKRKAIPRSNDFDDDGDQRGDGCSSNYSKAYRAPSSPKSGSDSEGEAPSTSVTDRSSAKREFTMANVQMICERLLKQQEIRLRNEFEMVLTKKLDEQHQQYVQFAAEQLNSKCVSTGDDYSYSYLS | not soluble
18 | AERLPDFLAKIQPSEIFPGADRYGKPEGKPMVARVYKGDEQLGLVYITTDAVNTRGYSSKPIDTLMVLANDGTIAGAKLVDHHEPIMLIGIPHLPAPGRAIRSNWLPAYIKPNFTLTNRLRLKGLPTVPQPSKATGAGVP | not soluble
